Laboratory results as given in patent US20180170992A1.

Columns and labels:
[1] = target: recombinant human IL13Rα2hFc chimera (R&D Systems) (human) (UniProt Q14627); assay: SPR, Biacore 3000; mAb immobilised, rhIL13Rα2 in the flow; 1:1 model
[2] = target: Pngase F-treated rhIL13Rα2hFc (human) (UniProt Q14627); assay: plate-bound ELISA on Pngase F-treated rhIL13Rα2hFc
[3] = target: IL13Rα2 expressed on the surface of human glioma cells (A172, N10, U251, U87, U118, U373, GBM12, GBM43) and in GBM tissue (human) (UniProt Q14627); assay: flow cytometry on N10 glioma cells pre-incubated with 10x excess rhIL13 [left table]
[4] = target: IL13Rα2 expressed on the surface of human glioma cells (A172, N10, U251, U87, U118, U373, GBM12, GBM43) and in GBM tissue (human) (UniProt Q14627); assay: flow cytometry on N10 glioma cells, isotype control [left table]

Kd [1] | koff [1] | kon [1] | percent decrease of binding against untreated protein [2] | % positive cells [3] | % positive cells [4] | Substance
0.0461 µM | 0.00499 s⁻¹ | 108000 M⁻¹ s⁻¹ | – | – | – | monoclonal antibody to IL13Rα2 (clone B-D13), Santa Cruz Biotechnology
0.104 µM | 0.00231 s⁻¹ | 22300 M⁻¹ s⁻¹ | 80% | – | – | mAb to IL13Rα2 (clone 83807), R&D Systems (antibody)
– | – | – | – | 0.9% | 1.9% | control mouse IgG (antibody)
